Assay results: US20160347804A1 (IPIERIAN, published 2016)
Changes are numbered by the printed parent chain.

B1: 7299-M9 (antibody, IgG1, V domains shown)
VH: EVKLEQSGAELVKPGASVKLSCKASGYTFTNYWINWVKQRPGQGLEWIGNIYPGSTRANYNEKFKSKATLTVDTSSSTAYMQVSSLTSDDSAVYYCTRTHSIWGQGTQVTVSA
VL: DIVITQSPLSLSVTIGQPASISCKSSQSLLYSDGKTYLNWLQQRPGQSPKRLVYQVSKLDPGIPDRFSGSGSETDFTLKLSRVEAEDLGVYYCLQGTYYPHTFGGGTKLEIKR
B2: 7297-2M1 (antibody, IgG1, V domains shown)
VH: EVQLEQSGAELVKPGASVKLSCKASGYTFISNWMHWVKQRPGQGLEWIGNIDPSDSETHYNQKFKDKATLTVDKSSSTAYMQLSSLTSEDSAVYYCARRDRDGYYFDYWGQGTTLTVSS
VL: DIVLTQTPSSLSASLGGKVTITCKASQDINKYIAWYQHKPGKGPRLLIHYTSTLQSGIPSRFSGSGSGRDYSFSISNLEPEDIATYYCLQYDHLLTFGAGTKLELKR
notes: also called anti-Tau mAb 7297-2M1
B3: 7299-M5 (antibody, IgG2b, V domains shown)
VH: B2 VH with Q3K, Q6E
VL: B1 VL with I4M
B4: 7298-M1 (antibody, IgG2a, V domains shown)
VH: EVQLEESGGGLVQPGGSLSLSCAASGFTFTDYYMSWVRQPPGKALEWVALNRNKTKGYTTEYSASVKGRFTISRDNSQSILYLQMNALRAEDSATYYCARGMDYWGQGTSVTVSS
VL: DIVLTQSPTSLAVSLGQRATISCRASKSVSTSDYSYMHWYQQKPGQPPKLLIYLASNLESGVPARFSGSGSGTDFTLNIHPVEEEDAATYYCQHSRELPFTFGGGTKLEIKR
notes: also called anti-Tau mAb 7298-M1
B5: 7298-M2 (antibody, IgG2a, V domains shown)
VH: EVQLEESGGGLVKPGGSLKLSCAASGFTFSTYPMSWVRQTPEKRLEWVASISNGGSTYYPDTVKGRFTISRDNARNILYLQMSSLRSEDTAMYYCARGRDYHFDFWGQGTTLTVSS
VL: B4 VL
notes: also called anti-Tau mAb 7298-M2
B6: 7295-M6 (antibody, V domains shown)
VH: EVQLEESGAELVRSGASVTLSCTASGFNIKDYYIHWVKQRPEQGLEWIGWIDPENGDTEYAPKFQGKATMTADTSSNTAYLQLSSLTSEDTAVYYCNGAPGYWGPGTTLTVSS
VL: DIVLTQTPLSLPVSLGDPASISCRSSQTIVHSNGNTYLEWYLQKPGQSPKLLIYKVSNRFSGVPDRFSGSGSGTDFTLKISRVEAEDLGVYYCFQGSHVPFTFGSGTKLEIKR
notes: also called anti-Tau mAb 7295-M6
B7: 7295-M8 (antibody, IgG2b, V domains shown)
VH: B6 VH
VL: B6 VL
notes: also called anti-Tau mAb 7295-M8
B8: 7299-M2 (antibody, IgG1, V domains shown)
VH: B1 VH with E1Q, K3Q, Q6E
VL: DIVLTQTPLTLSVTIGQPASISCKSSQSLLYSDGKTFLNWLLQSPGQSPRLLIYLVSKLQSGVPDRFSGSGSGTDFTLKISRVEAEDLGVYYCVQGTHFPYTFGGGTKLEIKR
B9: IPN002 (antibody, V domains shown)
VH: EVHLVESGGALVKPGGSLKLSCAASGFSFSKYGMSWVRQTPDKRLEWVATISSSGSRTYYPDSVKGQFTISRDNAKNTLYLQMSSLKSEDTAMYYCSISWDGAMDYWGQGTSVTVSS
VL: DVLMTQTPLSLPVSLGDQASISCKSSQSIVHSNGNTYLEWYLQKPGQSPKLLVYKVSNRFSGVPDRFSGSGSGTDFTLKISRVEAEDLGTYYCFQGSLVPWAFGGGTKLEIK

Target: T1, full-length recombinant tau (0N4R) (UniProt P10636-6 1-383)
T1 construct: The screening step used biotin-labeled full-length tau; also called rTau383
T1 sequence (P10636 other isoform, or with tags, fused parts or gaps limits assumed): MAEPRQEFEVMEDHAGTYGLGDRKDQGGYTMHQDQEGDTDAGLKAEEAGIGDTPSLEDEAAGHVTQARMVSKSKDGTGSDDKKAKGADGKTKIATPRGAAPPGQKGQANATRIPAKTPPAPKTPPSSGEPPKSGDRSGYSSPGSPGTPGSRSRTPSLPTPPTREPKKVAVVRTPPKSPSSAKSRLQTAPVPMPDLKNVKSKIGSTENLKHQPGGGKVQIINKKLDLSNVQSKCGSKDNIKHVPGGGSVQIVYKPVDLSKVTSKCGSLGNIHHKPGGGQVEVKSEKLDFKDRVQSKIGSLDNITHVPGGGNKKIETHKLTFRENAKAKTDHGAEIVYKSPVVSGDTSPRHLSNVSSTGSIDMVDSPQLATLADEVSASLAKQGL
Experiment: direct binding ELISA-type assay, purified mAb, full-length recombinant tau 0N4R

| Binder | Kd |
| --- | --- |
| B1 | 277 pM |
| B2 | 2210 pM |
| B3 | 511 pM |
| B4 | 6680 pM |
| B5 | 4410 pM |
| B6 | 117 pM |
| B7 | 80 pM |

Target: T2, eTau2 (human, UniProt P10636 2-526)
T2 construct: Recombinant eTau fragment; also called recombinant eTau2; reTau2
T2 sequence (P10636 other isoform, or with tags, fused parts or gaps limits assumed): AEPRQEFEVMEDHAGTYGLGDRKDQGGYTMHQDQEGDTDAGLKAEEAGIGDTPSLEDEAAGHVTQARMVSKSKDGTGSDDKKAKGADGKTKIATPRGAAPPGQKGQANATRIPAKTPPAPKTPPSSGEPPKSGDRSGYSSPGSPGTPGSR
Experiment: direct binding assay, purified mAb, recombinant eTau fragment

| Binder | binding result | Kd |
| --- | --- | --- |
| B8 | no binding |  |
| B1 |  | 700 pM |
| B2 |  | 90 pM |
| B3 |  | 1000 pM |
| B4 |  | 1000 pM |
| B5 |  | 700 pM |
| B6 | no binding |  |
| B7 | no binding |  |

Target: T3, eTau1 (human, UniProt P10636 2-547)
T3 construct: also called recombinant eTau1 fragment; eTau 2-172
T3 sequence (P10636 other isoform, or with tags, fused parts or gaps limits assumed): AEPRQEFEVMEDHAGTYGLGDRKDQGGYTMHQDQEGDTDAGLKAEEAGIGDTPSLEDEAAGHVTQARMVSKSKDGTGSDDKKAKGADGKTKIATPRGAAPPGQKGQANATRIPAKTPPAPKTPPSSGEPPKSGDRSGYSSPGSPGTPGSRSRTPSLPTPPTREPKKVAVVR
Experiment: as above

| Binder | binding result | Kd |
| --- | --- | --- |
| B8 | no binding |  |
| B1 |  | 600 pM |
| B2 |  | 100 pM |
| B3 |  | 600 pM |
| B4 |  | 3000 pM |
| B5 |  | 2000 pM |
| B6 |  | 52.8 pM |
| B7 |  | 44 pM |

Target: T4, eTau4 (human, UniProt P10636 2-124)
T4 construct: Recombinant eTau fragment; also called recombinant eTau4
T4 sequence (P10636 other isoform, or with tags, fused parts or gaps limits assumed): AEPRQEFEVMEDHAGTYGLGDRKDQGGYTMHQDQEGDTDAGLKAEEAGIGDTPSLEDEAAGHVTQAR
Experiment: as above

| Binder | Kd | binding result |
| --- | --- | --- |
| B8 | 800 pM |  |
| B1 | 600 pM |  |
| B2 |  | no binding |
| B3 | 500 pM |  |
| B4 |  | no binding |
| B5 |  | no binding |
| B6 |  | no binding |
| B7 |  | no binding |

Target: T5, eTau3 (human, UniProt P10636 2-497)
T5 construct: Recombinant eTau fragment; also called recombinant eTau3; reTau3
T5 sequence (P10636 other isoform, or with tags, fused parts or gaps limits assumed): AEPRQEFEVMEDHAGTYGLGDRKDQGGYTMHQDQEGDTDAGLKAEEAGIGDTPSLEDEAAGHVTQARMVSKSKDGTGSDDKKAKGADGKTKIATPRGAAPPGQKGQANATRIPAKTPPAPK
Experiment: as above

| Binder | binding result | Kd |
| --- | --- | --- |
| B8 | no binding |  |
| B1 |  | 1000 pM |
| B2 | no binding |  |
| B3 |  | 600 pM |
| B4 |  | 100 pM |
| B5 |  | 80 pM |
| B6 | no binding |  |
| B7 | no binding |  |

Target: T4, eTau4
Experiment: direct binding ELISA, antibody titrated on eTau4, OD-450 nm

| Binder | EC50 (read off the curve) |
| --- | --- |
| B9 | ~100 pM |
| B8 | ~30 pM |

Target: T1, full-length recombinant tau (0N4R)
Experiment: direct binding ELISA, antibody titrated on rTau383, OD-450 nm

| Binder | binding result |
| --- | --- |
| B8 | no binding (tested: log -8.2 M (about 6e-9 M)) |

Target: full-length recombinant tau (0N4R) (UniProt P10636 1-383)
Experiment: as above

| Binder | EC50 (read off the curve) |
| --- | --- |
| B9 | ~70 pM |
